Experiments:
[1] = Enzyme activity of culture media of expressing strains after heat treatment with or without disruption; format: cell-based, Escherichia coli
Protocol: (§1) The activity of the lysine decarboxylase was measured according to the method described in JP patent application laid-open Publication No. 2008-193899. 0.1 mL of a microbial cell suspension or a treated product thereof was added to 1 mL of a reaction solution containing 100 mM MES-NaOH buffer (pH 6.0), 10 g/L (55 mM) of L-lysine hydrochloride and 26.5 mg/L (0.1 mM) of PLP, and then the reaction mixture was incubated at 37° C. for 5 minutes. 0.1 mL of the reaction solution was collected and added to 1 mL of 1% (v/v) phosphoric acid to stop the reaction. Lysine and 1,5-PD were quantified with HPLC by a post column OPA method (S. R. Vale and M. B. Gloria, Journal Of AOAC International (1997) vol. 80, p. 1006-1012) or a method of quantifying remaining L-lysine using a biosensor BF-5 (Oji Scientific Instruments Co., Ltd.). One unit was defined as an activity that formed 1 μmol of 1,5-PD in one minute under this condition.
Microbial cells of E. coli JM109/pCadA220 and E. coli JM109/pCadA234 carrying the wild-type CadA and the double mutant CadA, respectively were cultured in the LB medium. Subsequently, 15 mL of the cultured medium was inoculated into 300 mL of culture medium (25 g/L of glucose, 5 g/L of ammonium sulfate, 2 g/L of potassium phosphate, 1 g/L of magnesium sulfate heptahydrate, 20 mg/L of iron sulfate heptahydrate, 20 mg/L of manganese sulfate pentahydrate, 1 mg/L of thiamine hydrochloride, 0.45 g/L of hydrolyzed soybeans, pH 7.0) in a 500 mL jar fermenter (manufactured by ABLE & Biott Co., Ltd.), and cultured with ventilation at 300 mL/minute while stirring at 250 rpm at 30° C. for 12 hours. Culture media containing 10.1 g/L and 10.9 g/L of microbial cells in terms of dry microbial cell weight were able to be prepared for E. coli JM109/pCadA220 and E. coli JM109/pCadA234, respectively. For the purpose of improving substrate permeability, the pH value was adjusted to 5.5, and subsequently the culture media were incubated at 55° C. and 60° C., and then the culture media were directly used to measure the activity after the incubation.
Since the lysine decarboxylase is expressed within the microbial cell, when the microbial cell is used directly, lysine cannot react with the lysine decarboxylase, and the efficiency of a decarboxylation reaction is very poor. […] However, the wild-type enzyme was inactivated during the incubation when heated excessively. The mutated enzyme having the improved thermal stability could stably keep its activity even when using conditions where the wild-type enzyme was easily inactivated as shown in Example 2. When the microbial cells carrying such a mutated enzyme were used, efficient treatment in a short period of time was possible. This has shown that the mutated enzyme not only can act at higher temperature upon reaction but also can be easily used when the microbial cell is directly used.

[2] = Remaining lysine decarboxylase activity of cell free extract after incubation at 68° C.; format: biochemical, Escherichia coli
Protocol: as §1
A combination mutant for increasing the amount of expressed CadA was constructed using QuikChange™ Site-Directed Mutagenesis Kit (Stratagene). A mutation to alter from Val (GTT) to Ile ([…]) at position 3 was introduced using the plasmid pCadA233 as the template and using oligonucleotides v3i_r (5′-cat gtg att caa tat tgc aat aat gtt cat cta cat tcc tcc tta cg-3′(SEQ ID NO:11)) and v3i_f (5′-cgt aag gag gaa tgt aga tga aca tta ttg caa tat tga atc aca tg-3′ (SEQ ID NO:12)) as primers according to a protocol. The nucleotide sequence of the constructed plasmid was determined by the method described in Example 2 to confirm that the objective mutation had been introduced, and this plasmid was designated as pCadA234. Microbial cells of E. coli JM109/pCadA234 expressing this double mutant CadA234 at high level were cultured to prepare a cell free extract in the same manner as in Example 2. The activity in this cell free extract was 663 U/mL, which was almost the same as that from the strain expressing the wild-type enzyme.
The resulting cell free extract was diluted to 20 fold with 0.1 M MES-NaOH buffer (pH 6.0). Each crude enzyme solution was incubated at 68° C., which is a higher temperature than in Example 2, and the remaining activity was measured over time. After incubation at 68° C. for one hour, the wild-type enzyme was inactivated to 27% while the single mutant enzymes V3I and A590T were inactivated to 47% and 27%, respectively. On the contrary, the double mutant enzyme retained 70% of its activity, and even after 3 hours, still retained about 60% of its activity (FIG. 1). Therefore, it was shown that the double mutation has a synergistic effect and further improved the thermal stability.

[3] = Inhibition of enzyme activity by iron ion and effect of chelating agent EDTA; format: biochemical, Escherichia coli
Protocol: as §1
Cell free extracts were prepared from the strain expressing wild-type CadA and the strain overexpressing double mutant CadA, respectively in the same manner as in Examples 2 and 3. Using the resulting cell free extract, iron sulfate heptahydrate (Nacalai Tesque Inc.) at a final concentration of […] (2 mM) was added to the composition shown in Example 1, and an inhibitory effect was measured. […]

[4] = Lysine decarboxylation reaction (1,5-PD production) in the presence of chelating agent; parameters: species or system Escherichia coli; conditions: 0.1 mM iron sulfate, 0.3 mM EDTA added, 37° C., 16 hours
Protocol: In the same manner as in Example 4, microbial cells of E. coli JM109/pCadA234 (double mutant expressing CadA at high level) were cultured, the cultured medium was prepared, and after completing the cultivation, incubated at 60° C. for one hour. The activity after incubation was measured, and the cultured medium was diluted so that the enzyme activity became 380 units/mL. 30 mL of this cultured medium containing the enzyme was added to 270 mL of a reaction solution containing 250 g/L of lysine hydrochloride (Ajinomoto Co., Ltd.), 26.5 mg/L of pyridoxal phosphate, 27.8 mg/L (0.1 mM) of iron sulfate heptahydrate and 111.6 mg/L (0.3 mM) of disodium dihydrogen ethylenediaminetetraacetate (EDTA), and the mixture was reacted at 37° C. for 16 hours. No EDTA was added in a control reaction. The pH value was 5.3 when the reaction was started, and elevated with progress of the reaction, but was kept at 7.0 by adding 30% (v/v) sulfuric acid when the pH value reached 7.0.
On the other hand, when EDTA was added, the inhibition of the reaction is restored and lysine was completely consumed. When EDTA was added, 135 g/L of 1,5-PD was formed and lysine was converted at a yield of 98%. […]

[5] = Incubation at 55° C. for 1 h, Disruption
[6] = Incubation at 55° C. for 1 h, physical treatment None
[7] = Incubation at 55° C. for 3 h, Disruption
[8] = Incubation at 55° C. for 3 h, physical treatment None
[9] = Incubation at 60° C. for 1 h, Disruption
[10] = Incubation at 60° C. for 1 h, physical treatment None
[11] = No heat treatment, physical treatment None

B1: pCadA234: lysine decarboxylase (CadA) V3I/A590T double mutant (protein, UniProt P0A9H3 1-715, looked up, variant V3I A590T)
Inducible lysine decarboxylase: MNIIAILNHMGVYFKEEPIRELHRALERLNFQIVYPNDRDDLLKLIENNARLCGVIFDWDKYNLELCEEISKMNENLPLYAFANTYSTLDVSLNDLRLQISFFEYALGAAEDIANKIKQTTDEYINTILPPLTKALFKYVREGKYTFCTPGHMGGTAFQKSPVGSLFYDFFGPNTMKSDISISVSELGSLLDHSGPHKEAEQYIARVFNADRSYMVTNGTSTANKIVGMYSAPAGSTILIDRNCHKSLTHLMMMSDVTPIYFRPTRNAYGILGGIPQSEFQHATIAKRVKETPNATWPVHAVITNSTYDGLLYNTDFIKKTLDVKSIHFDSAWVPYTNFSPIYEGKCGMSGGRVEGKVIYETQSTHKLLAAFSQASMIHVKGDVNEETFNEAYMMHTTTSPHYGIVASTETAAAMMKGNAGKRLINGSIERAIKFRKEIKRLRTESDGWFFDVWQPDHIDTTECWPLRSDSTWHGFKNIDNEHMYLDPIKVTLLTPGMEKDGTMSDFGIPASIVAKYLDEHGIVVEKTGPYNLLFLFSIGIDKTKALSLLRALTDFKRAFDLNLRVKNMLPSLYREDPEFYENMRIQELTQNIHKLIVHHNLPDLMYRAFEVLPTMVMTPYAAFQKELHGMTEEVYLDEMVGRINANMILPYPPGVPLVMPGEMITEESRPVLEFLQMLCEIGAHYPGFETDIHGAYRQADGRYTVKVLKEESKK
Enzyme activity [1, 5]: 758 units/ml
Relative activity [1, 5]: 98.4%
Enzyme activity [1, 6]: 475 units/ml
Relative activity [1, 6]: 61.7%
Enzyme activity [1, 7]: 659 units/ml
Relative activity [1, 7]: 85.5%
Enzyme activity [1, 8]: 601 units/ml
Relative activity [1, 8]: 78.0%
Enzyme activity [1, 9]: 754 units/ml
Relative activity [1, 9]: 97.9%
Enzyme activity [1, 10]: 426 units/ml
Relative activity [1, 10]: 55.3%
Enzyme activity ([1]; No heat treatment, Disruption): 770 units/ml
Relative activity ([1]; No heat treatment, Disruption): 100%
Enzyme activity [1, 11]: 16.0 units/ml
Relative activity [1, 11]: 2.1%
remaining activity after incubation at 68° C. for one hour ([2]; 68° C., 1 hour, FIG. 1): 70%
remaining activity after incubation at 68° C. for 3 hours ([2]; 68° C., 3 hours, FIG. 1): about 60%
activity in cell free extract ([2]; before incubation): 663 U/mL
activity with 2 mM iron ion, of the activity when no iron ion was added ([3]; 2 mM iron ion, no EDTA): 64.7%
Enzyme activity ([3]; FeSO4 2 mM, EDTA 0.5 mM): 677 units/ml
Enzyme activity ([3]; FeSO4 2 mM, EDTA 1 mM): 680 units/ml
Enzyme activity ([3]; FeSO4 2 mM, EDTA 2 mM): 677 units/ml
Enzyme activity ([3]; FeSO4 2 mM, EDTA 4 mM): 672 units/ml
Enzyme activity ([3]; FeSO4 2 mM, EDTA 5 mM): 669 units/ml
Enzyme activity ([3]; FeSO4 2 mM, EDTA None): 443 units/ml
Enzyme activity ([3]; FeSO4 None, EDTA 2 mM): 677 units/ml
Enzyme activity ([3]; FeSO4 None, EDTA None): 685 units/ml
yield of lysine conversion [4]: 98%

Reference: patent US10358638B2, “Method of producing 1,5-pentadiamine using lysine decarboxylase mutant having improved thermal stability” (AJINOMOTO CO., INC., priority 2014, dated 2019)
